Molecular target: IE-3 fragment antigen-binding (Fab) region, recombinant, labelled (labeled with the Blue-NHS labeling kit (chain not told) | labeled with the Blue-NHS labeling kit (chain not told))
Test: MST

Kd [nM]	Binder
8.9	TIKVVGGYQVNIRVGDTTTDVRYKDDMYHFFCPAIQ (domain or fragment) [mZP2 T103-Q138 linear epitope fused to maltose-binding protein]
0.3	mouse ZP2 N-terminal ZP-N1 domain (mZP2-N1), His-tagged (domain or fragment) VSLPQSENPAFPGTLICDKDEVRIEFSSRFDMEKWNPSVVDTLGSEILNCTYALDLERFVLKFPYETCTIKVVGGYQVNIRVGDTTTDVRYKDDMYHFFCPAIQ
16.3	rZP2-N1 S113R (domain or fragment) SLPQSENPAFPGTLICDKDEVRVEFSSRFDMEKWNPSLVDTFGNEISSCTYALDLEKFILKFPYETCTIKVIGGYQVNIRVQDTNADVRYKDDVHHFFCPAIQ
